Measured values as given in patent US20120114665A1 (Regeneron, published 2012).

Legend:
[1] = biological target: T1, human RANKL (receptor activator of NF-κB ligand) (human, UniProt O14788 140-317, limits assumed); assay: SPR (BIACORE), purified antibody, 25°C
T1 construct: also called hRANKL; hRANKL native trimer
T1 sequence: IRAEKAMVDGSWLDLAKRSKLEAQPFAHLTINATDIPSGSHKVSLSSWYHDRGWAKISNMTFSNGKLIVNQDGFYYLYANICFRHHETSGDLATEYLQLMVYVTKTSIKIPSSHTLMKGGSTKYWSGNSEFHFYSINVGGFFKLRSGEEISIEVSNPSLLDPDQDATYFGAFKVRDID

[2] = biological target: T2, penta-his-tagged hRANKL (human); assay: competition ELISA: 150 pM his-hRANKL pre-mixed with antibody, free RANKL detected on hRANK-hFc plate
T2 construct: also called his-hRANKL; not shown: penta-his tag
T2 chain: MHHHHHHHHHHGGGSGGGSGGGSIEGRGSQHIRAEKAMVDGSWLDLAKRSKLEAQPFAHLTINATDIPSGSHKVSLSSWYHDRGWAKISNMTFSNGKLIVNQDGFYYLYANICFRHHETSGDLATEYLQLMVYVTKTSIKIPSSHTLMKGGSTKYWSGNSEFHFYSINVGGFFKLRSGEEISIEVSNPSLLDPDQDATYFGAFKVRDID
Experimental: (§1) Briefly, hRANK-hFc protein was coated on a 96-well plate in PBS buffer overnight at 4° C. at 2 μg/ml, and nonspecific binding was blocked with BSA, to form a hRANK-hFc surface.

[3] = biological target: T3, penta-his-tagged monkey (Macaca fascicularis) RANKL (Macaca fascicularis, UniProt O14788 125-317 (human entry)); assay: competition ELISA: 150 pM his-mfRANKL pre-mixed with antibody, free RANKL detected on hRANK-hFc plate
T3 construct: also called his-mfRANKL; mfRANKL; not shown: penta-his tag
T3 chain: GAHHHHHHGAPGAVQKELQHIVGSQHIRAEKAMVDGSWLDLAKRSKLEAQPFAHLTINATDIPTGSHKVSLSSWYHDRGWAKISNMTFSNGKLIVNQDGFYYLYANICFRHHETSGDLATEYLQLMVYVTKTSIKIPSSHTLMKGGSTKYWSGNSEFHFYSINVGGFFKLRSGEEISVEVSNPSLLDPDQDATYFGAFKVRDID
Experimental: as §1

[4] = biological target: T1, human RANKL (receptor activator of …); assay: cell-based or functional assay
[5] = biological target: T1, human RANKL (receptor activator of …); assay: SPR (BIACORE), purified antibody, 37°C
[6] = biological target: T1, human RANKL (receptor activator of …); assay: SPR (BIACORE 2000), antibody captured on anti-hFc, hRANKL injected
Experimental: Equilibrium dissociation constants (KD values) for antigen binding to the selected antibodies generated by hybridoma cell lines described above were determined by surface kinetics in a real-time biosensor surface plasmon resonance assay (BIACORE™ 2000). Each selected antibody was captured on a goat anti-mouse IgG polyclonal antibody surface created through direct chemical coupling to a BIACORE™ chip to form a captured antibody surface.
Each selected antibody was captured on a goat anti-hFc polyclonal antibody (Jackson Immuno Research Lab) surface created through direct chemical coupling to a BIACORE™ chip to form a captured antibody surface (Table 2).

B1: H4H002P (antibody, V domains shown)
VH: QVQLVESGGGVVQPGRSLRLSCAASGFTFTGYGMHWVRQAPDKGLEWVAVISYDGTNKYYVDSVKGRFTISRDNSQNTLYLQMNSLRAEDTAVYYCAKCLSGTYWGYGMDVWGQGTTVTVS
VL: DIQMTQSPSTLSASVGDRVTITCRASRSINSWLAWYQQKPGKAPKLLIYKASSLESGVPSRFSGSGSGTEFTLTISSLQPDDFASYYCQQYNNYSWTFGQGTKVEIK
notes: Purified antibody from clone 1F8
[1]
  Kd: 0.262 nM
[2]
  IC50: 0.165 nM
[3]
  IC50: 1.36 nM
[4]
  IC50, hRANKL-inducible luciferase activity in HK293/RANK/NFκB-luc-eGFP cells: 0.214 nM
[5]
  Kd: 0.0531 nM

B2: 2H10 (antibody, V domains shown)
VH: QVQLVESGGGVVQPGRSLRLSCAASGFTFSGYGIHWVRQAPDKGLEWVAVISYDGTNKYYGDSVKGRFTISRDNTKNTLYLQMNSLRTEDTAVYYCAKSLSGTYWGYGMDVWGQGTTVTVSS
VL: AIQMTQSPSTLSASVGDRVTITCRASQNIGNWLAWYQQKPGKAPKLLIYKASSLQNGVPSRFSGSGSGTEFTLTISSLQPDDFATYYCQRYNSYSWTFGQGTKVEIK
notes: From direct isolation of splenocytes; captured on anti-hFc; also called H4H009N
[6]
  Kd: 0.0158 nM

B3: 2H12 (antibody, V domains shown)
VH: QVQLVQSGGGVVQPGRSLRLSCAASGFTFSGYGMHWVRQAPGKGLDWVTVISYDGSNKHYADSVKGRFTISRDNSKNTLYLQMSSLGPEDTAVYYCAKSLSGTYWGYGMDVWGQGTTVTVSS
VL: AIQMTQSPSTLSASVGDRVTITCRASQNISSWLAWYQQKPGKAPKLLIYKASSLESGVPSRFSGSGSGTEFTLTVSSLQPDDFATYYCQQYNRYSWTFGQGTKVEIK
notes: From direct isolation of splenocytes; captured on anti-hFc; also called H4H010N
[6]
  Kd: 0.0331 nM

B4: H4H006G (antibody, V domains shown)
VH: QVQLVESGGGVVQPGRSLRLSCAASGFTFGGYGMHWVRQAPGKGLEWVAVISYDGNNKYYADSVKGRFTISRDNSKNTLYLQMNSLRAEDTAVYYCAKCLSGTYWGYGMDGWGQGTTVTVS
VL: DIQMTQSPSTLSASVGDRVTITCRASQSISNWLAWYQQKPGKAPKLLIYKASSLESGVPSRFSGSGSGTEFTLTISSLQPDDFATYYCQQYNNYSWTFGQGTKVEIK
notes: Purified antibody from clone 2E11
[1]
  Kd: 0.265 nM
[2]
  IC50: 0.195 nM
[3]
  IC50: 1.24 nM
[4]
  IC50, hRANKL-inducible luciferase activity in HK293/RANK/NFκB-luc-eGFP cells: 0.171 nM
[5]
  Kd: 0.0415 nM

B5: H4H005P (antibody, V domains shown)
VH: QVQLVESGGGVVHPGRSLTLSCAASGFTFSGYGMHWVRQAPGKGLEWVAVISYDGINKYYADSVKGRFTISRDNSKNTLYLQMNSLRAEDTAIYYCAKCLSGSYWGFGMDVWGQGTTVTVS
VL: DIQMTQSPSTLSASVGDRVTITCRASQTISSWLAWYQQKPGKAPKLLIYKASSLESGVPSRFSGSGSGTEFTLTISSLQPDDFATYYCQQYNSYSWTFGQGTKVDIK
notes: Purified antibody from clone 2E10
[1]
  Kd: 0.601 nM
[2]
  IC50: 1.16 nM
[3]
  IC50: 4.32 nM
[4]
  IC50, hRANKL-inducible luciferase activity in HK293/RANK/NFκB-luc-eGFP cells: 1.17 nM
[5]
  Kd: 0.0453 nM

B6: 1F8 (antibody, V domains shown)
VH: QVQLVQSGGGVVQPGRSLRLSCAASGFTFTGYGMHWVRQAPDKGLEWVAVISYDGTNKYYVDSVKGRFTISRDNSQNTLYLQMNSLRAEDTAVYYCAKCLSGTYWGYGMDVWGQGTTVTVSS
VL: AIQMTQSPSTLSASVGDRVTITCRASRSINSWLAWYQQKPGKAPKLLIYKASSLESGVPSRFSGSGSGTEFTLTISSLQPDDFASYYCQQYNNYSWTFGQGTKVEIK
notes: From direct isolation of splenocytes; captured on anti-hFc; also called H4H002N
[6]
  Kd: 0.00785 nM

B7: 2E11 (antibody, V domains shown)
VH: QVQLVQSGGGVVQPGRSLRLSCAASGFTFGGYGMHWVRQAPDKGLEWVAVISYDGNNKYYVDSVKGRFTISRDNSKNMLYLQMNSLRAEDTAVYYCAKCLSGTYWGYGMDGWGQGTTVTVSS
VL: DIQMTQSPSTLSASVGDRVTITCRASQSISNWLAWYQQKPGKAPKLLIYKASNLQSGVPSRFSGSGSGTEFTLTISSLQPDDFATYYCQQYNNYSWTFGQGTKVEIK
notes: From direct isolation of splenocytes; captured on anti-hFc; also called H4H006N
[6]
  Kd: 0.016 nM

B8: H4H009G (antibody, V domains shown)
VH: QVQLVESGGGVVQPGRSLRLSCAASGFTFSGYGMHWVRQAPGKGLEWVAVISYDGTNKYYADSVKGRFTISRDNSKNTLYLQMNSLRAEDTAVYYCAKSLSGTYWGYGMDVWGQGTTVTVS
VL: DIQMTQSPSTLSASVGDRVTITCRASQNIGNWLAWYQQKPGKAPKLLIYKASSLESGVPSRFSGSGSGTEFTLTISSLQPDDFATYYCQRYNSYSWTFGQGTKVEIK
notes: Purified antibody from clone 2H10
[1]
  Kd: 0.198 nM
[2]
  IC50: 0.065 nM
[3]
  IC50: 0.875 nM
[4]
  IC50, hRANKL-inducible luciferase activity in HK293/RANK/NFκB-luc-eGFP cells: 0.102 nM
[5]
  Kd: 0.0424 nM

B9: H4H010P (antibody, V domains shown)
VH: QVQLVESGGGVVQPGRSLRLSCAASGFTFSGYGMHWVRQAPGKGLDWVTVISYDGSNKHYADSVKGRFTISRDNSKNTLYLQMSSLGPEDTAVYYCAKSLSGTYWGYGMDVWGQGTTVTVS
VL: DIQMTQSPSTLSASVGDRVTITCRASQNISSWLAWYQQKPGKAPKLLIYKASSLESGVPSRFSGSGSGTEFTLTVSSLQPDDFATYYCQQYNRYSWTFGQGTKVEIK
notes: Purified antibody from clone 2H12
[1]
  Kd: 0.0697 nM
[2]
  IC50: 0.045 nM
[3]
  IC50: 0.15 nM
[4]
  IC50, hRANKL-inducible luciferase activity in HK293/RANK/NFκB-luc-eGFP cells: 0.051 nM
[5]
  Kd: 0.0779 nM

B10: 2E10 (antibody, V domains shown)
VH: QVQLVQSGGGVVHPGRSLTLSCAASGFTFSGYGMHWVRQAPGKGLEWVAVISYDGINKYYADSVKGRFTISRDNSKNTLYLQMNSLRAEDTAIYYCAKCLSGSYWGFGMDVWGQGTTVTVSS
VL: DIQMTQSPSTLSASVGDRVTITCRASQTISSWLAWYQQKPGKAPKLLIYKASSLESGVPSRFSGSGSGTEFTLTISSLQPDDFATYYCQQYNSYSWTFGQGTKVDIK
notes: From direct isolation of splenocytes; captured on anti-hFc; also called H4H005N
[6]
  Kd: 0.0172 nM

B11: H4H005G (antibody, V domains shown)
VH: QVQLVESGGGVVQPGRSLRLSCAASGFTFSGYGMHWVRQAPGKGLEWVAVISYDGINKYYADSVKGRFTISRDNSKNTLYLQMNSLRAEDTAVYYCAKCLSGSYWGFGMDVWGQGTTVTVS
VL: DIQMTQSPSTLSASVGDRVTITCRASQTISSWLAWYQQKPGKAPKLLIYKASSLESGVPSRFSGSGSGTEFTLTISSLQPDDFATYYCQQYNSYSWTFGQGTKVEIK
notes: as for B5
[1]
  Kd: 0.0762 nM
[2]
  IC50: 3.13 nM
[3]
  IC50: 9.59 nM
[4]
  IC50, hRANKL-inducible luciferase activity in HK293/RANK/NFκB-luc-eGFP cells: 1.06 nM
[5]
  Kd: 0.0241 nM

B12: H4H006P (antibody, V domains shown)
VH: QVQLVESGGGVVQPGRSLRLSCAASGFTFGGYGMHWVRQAPDKGLEWVAVISYDGNNKYYVDSVKGRFTISRDNSKNMLYLQMNSLRAEDTAVYYCAKCLSGTYWGYGMDGWGQGTTVTVS
VL: DIQMTQSPSTLSASVGDRVTITCRASQSISNWLAWYQQKPGKAPKLLIYKASNLQSGVPSRFSGSGSGTEFTLTISSLQPDDFATYYCQQYNNYSWTFGQGTKVEIK
notes: as for B4
[1]
  Kd: 0.172 nM
[2]
  IC50: 0.085 nM
[3]
  IC50: 0.42 nM
[4]
  IC50, hRANKL-inducible luciferase activity in HK293/RANK/NFκB-luc-eGFP cells: 0.08 nM
[5]
  Kd: 0.044 nM

B13: H4H007P (antibody, V domains shown)
VH: QVQLVESGGGVVQPGRSLRLSCAASGFTFSGYGMHWVRQAPGMGLEWVAVISYDGINKYYADSVKGRFTISRDNSKNTLFLQMNSLRAEDTALYYCAKCLSGTYWGYGMDVWGQGTTVTVS
VL: DIQMTQSPSTLSASVGDRVTITCRASQSISSWLAWYQLKPGKAPKLLIYKASSLESGVPSRFGGSGSGTEFTLTISSLQPDDFATYYCQHYNSYSWTFGQGTKVEIK
notes: Purified antibody from clone 2E12
[1]
  Kd: 0.335 nM
[2]
  IC50: 0.335 nM
[3]
  IC50: 2.76 nM
[4]
  IC50, hRANKL-inducible luciferase activity in HK293/RANK/NFκB-luc-eGFP cells: 0.452 nM
[5]
  Kd: 0.0578 nM

B14: 2E12 (antibody, V domains shown)
VH: QVQLVQSGGGVVQPGRSLRLSCAASGFTFSGYGMHWVRQAPGMGLEWVAVISYDGINKYYADSVKGRFTISRDNSKNTLFLQMNSLRAEDTALYYCAKCLSGTYWGYGMDVWGQGTTVTVSS
VL: AIQMTQSPSTLSASVGDRVTITCRASQSISSWLAWYQLKPGKAPKLLIYKASSLESGVPSRFGGSGSGTEFTLTISSLQPDDFATYYCQHYNSYSWTFGQGTKVEIK
notes: From direct isolation of splenocytes; captured on anti-hFc; also called H4H007N
[6]
  Kd: 0.0957 nM

B15: 2G10 (antibody, V domains shown)
VH: QVQLVQSGGGVVQPGRSLRLSCAASGFTFSGFGMHWVRQAPGKGLEWVAIISYDGRNKYYADSVKGRFTISRDNSKNTLYLQMNSLRAEDTAVYYCAKSLSGTYWGYGMDVWGQGTTVTVSS
VL: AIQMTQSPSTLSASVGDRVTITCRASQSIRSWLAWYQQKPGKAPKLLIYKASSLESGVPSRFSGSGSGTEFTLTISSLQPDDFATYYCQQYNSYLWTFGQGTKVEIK
notes: From direct isolation of splenocytes; captured on anti-hFc; also called H4H008N
[6]
  Kd: 0.028 nM
